# What was measured:
# VLA4 receptor (human) = VLA4 receptor (human) (UniProt P13612)
# VLA4 receptor = VLA4 receptor (human, UniProt P13612); test: cell-based or functional assay
# VLA3 receptor = VLA3 receptor (human, UniProt P26006); test: cell-based or functional assay
# VLA5 receptor = VLA5 receptor (human, UniProt P08648); test: cell-based or functional assay
molecule,measurement,setting,value
amphotropic MLV envelope (isolate 4070a) (plasmid pHIT456),viral titer of pHIT456 (amphotropic) virus on U937 cells in the presence of anti-VLA4 antibody,VLA4 receptor (human),40000 viral titer
hybrid ecotropic MLV envelope with the VCAM-1 sequence at site II (plasmid pHIT510) (other) ASPGSSPHQVYNITWEVTNGDRETVWATSGNHPLWTWWPDLTPDLCMLAHHGPSYWGLEYQSPFSSPPGPPCCSGGSSPGCSRDCEEPLTSLTPRCNTAWNRLKLDQTTHKSNEGFYVCTIDSPLNCGGPDSFYCAYWGCETTGRAYWKPSSSWDFITVNNNLTSDQAVQVCKDNKWCNPLVIRFTDAGRRVTSWTTGHYWGLRLYVSGQDPGLTFGIRLRYQNLGPRVPIGPNPVLADQQPLSKPKPVKSPSVTKPPSGTPLSPTQLPPAGTENRLLNLVDGAYQALNLTSPDKTQECWLCLVAGPPYYEGVAVLGTYSNHTSAPANCSVASQHKLTLSEVTGQGLCIGAVPKTHQALCNTTQTSSRGSYYLVAPTGTMWACSTGLTPCISTTILNLTTDYCVLVELWPRVTYHSPSYVYGLFERSNRHKREPVSLTLALLLGGLTMGGIAAGIGTGTTALMATQQFQQLQAAVQDDLREVEKSISNLEKSLTSLSEVVLQNRRGLDLLFLKEGGLCAALKEECCFYADHTGLVRDSMAKLRERLNQRQKLFESTQGWFEGLFNRSPWFTTLISTIMGPLIVLLMILLFGPCILNRLVQFVKDRISVVQALVLTQQYHQLKPIEYEP,"viral titer on U937 cells (lacZ delivery, X-gal staining)",VLA4 receptor,150 viral titer
hybrid ecotropic MLV envelope with FLA16 at site II (plasmid pHIT508) (other) ASPGSSPHQVYNITWEVTNGDRETVWATSGNHPLWTWWPDLTPDLCMLAHHGPSYWGLEYQSPFSSPPGPPCCSGGSSPGCSRDCEEPLTSLTPRCNTAWNRLKLDQTTHKSNEGFYVCQGATFALRGDNPQGCGGPDSFYCAYWGCETTGRAYWKPSSSWDFITVNNNLTSDQAVQVCKDNKWCNPLVIRFTDAGRRVTSWTTGHYWGLRLYVSGQDPGLTFGIRLRYQNLGPRVPIGPNPVLADQQPLSKPKPVKSPSVTKPPSGTPLSPTQLPPAGTENRLLNLVDGAYQALNLTSPDKTQECWLCLVAGPPYYEGVAVLGTYSNHTSAPANCSVASQHKLTLSEVTGQGLCIGAVPKTHQALCNTTQTSSRGSYYLVAPTGTMWACSTGLTPCISTTILNLTTDYCVLVELWPRVTYHSPSYVYGLFERSNRHKREPVSLTLALLLGGLTMGGIAAGIGTGTTALMATQQFQQLQAAVQDDLREVEKSISNLEKSLTSLSEVVLQNRRGLDLLFLKEGGLCAALKEECCFYADHTGLVRDSMAKLRERLNQRQKLFESTQGWFEGLFNRSPWFTTLISTIMGPLIVLLMILLFGPCILNRLVQFVKDRISVVQALVLTQQYHQLKPIEYEP,"viral titer on U937 cells (lacZ delivery, X-gal staining)",VLA3 receptor,150 viral titer
same,"viral titer on U937 cells (lacZ delivery, X-gal staining)",VLA5 receptor,150 viral titer
